# In patent US20250043290A1, “RNA SEQUENCES THAT INDUCE FLUORESCENCE OF SMALL MOLECULE FLUOROPHORES, MOLECULAR COMPLEXES, SENSORS, AND METHODS OF USE THEREOF” (CORNELL UNIVERSITY, priority 2021, published 2025):
# B1: Squash: fluorogenic RNA aptamer evolved from the add A-riboswitch aptamer, binds DFHBI-1T and DFHO; SEQ ID NO: 12 (SEQ ID NO: 1) (nucleic acid)
# chain: AGGUGAGCCCAAUAAUACGGUUUGGGUUAGGAUAGGAAGUAGAGCCGUAAACUCUCUAAGCG
# modifications: RNA, backbone not given here
# Legend:
# [1] = Dissociation constant of RNA-fluorophore complex, titration with DFHBI-1T; assay type: binding; conditions: 50 nM RNA, one-site saturation model
# Method: (§1) FIGS. 7A-7H provide photophysical and biophysical characterization of Squash. […] Excess RNA was used to ensure binding of nearly all fluorophore. […] Data represent mean values±s.d. for n=3 independent experiments. […] The fluorescence signal trace was fitted with a monoexponential curve to extract kobs. kobs was plotted as a function of total RNA (50 nM RNA) and fluorophore concentration. kon and koff were extracted as the slope and intercept, respectively. Squash koff (0.014±0.008 s^−1) is very similar to that of Corn (0.018±0.002 s^−1). kon for Squash-DFHO (162300±8100 M^−1 s^−1) is seven-times higher than Corn-DFHO (23000±3000 M^−1 s^−1) which could be due to the high folding of Squash. […]
# (§2) Dissociation constants (Kd) for the RNA-fluorophore complexes were determined as described previously (Paige et al., “RNA Mimics of Green Fluorescent Protein,” Science 333:642-646 (2011) and Filonov et al., “Broccoli: Rapid Selection of an RNA Mimic of Green Fluorescent Protein by Fluorescence-Based Selection and Directed Evolution,” J. Am. Chem. Soc. 136: 16299-16308 (2014), which are hereby incorporated by reference in their entirety). In brief, the RNA aptamer at a fixed concentration (50 nM) was titrated with increasing fluorophore concentration and the resulting increase in fluorescence was recorded. […]
# [2] = Kd measurements for Broccoli and Squash binding to BI; conditions: 50 nM RNA
# Method: as §1, §2
# [3] = Photophysical properties of fluorophores and RNA-fluorophore complexes (Squash study); assay type: physicochemical
# Summary of the method: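 Gel-purified RNAs in 40 mM HEPES-KOH pH 7.4, 100 mM KCl, 0.5 mM MgCl2, with RNA in excess over fluorophore for absorption, excitation and emission spectra. Quantum yields used 10 μM RNA and 0.2 μM fluorophore, from integrated emission versus Broccoli-DFHBI-1T or Corn-DFHO.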
# [4] = On and off rates of aptamer binding to DFHO; conditions: 50 nM RNA
# Method: as §1
# To measure on and off rates of Squash binding to DFHO, the same protocol that was reported previously to measure kinetic rates for Spinach-DFHBI was used (Han et al., “Understanding the Photophysics of the Spinach-DFHBI RNA Aptamer-Fluorogen Complex to Improve Live-Cell RNA Imaging,” J. Am. Chem. Soc. 135:19033-19038 (2013), which is hereby incorporated by reference in its entirety). Briefly, 50 nM RNA was mixed with different amounts of DFHO and binding kinetics was monitored on the fluorimeter as fluorescence signal increases. Each fluorescence signal trace was fitted with a monoexponential curve and the observed rate constant (kobs) was extracted. […]
molecule,measurement,setting,value
B1,Kd,[1],45 nM
same,Affinity for BI,[2],much weaker affinity than Broccoli
same,Quantum yield with DFHBI-1T,[3],0.71
same,Quantum yield with DFHO,[3],0.60
same,Emission maxima with DFHO,"[3]; 10 μM RNA, 1 μM DFHO",562 nm
same,Abs max in complex with DFHBI-1T,"[3]; 50 μM RNA, 5 μM DFHBI-1T",450 nm
same,koff,[4],0.014 ± 0.008 s⁻¹
